According to patent US20260078190A1 (SYSTIMMUNE, published 2026):
Like-named read-outs stand apart in the source and are kept apart here.

Tests used:
[1] = biological target: T1, SI-2C1, dimeric EGFR ECD fused to rabbit Fc (UniProt P00533 25-645, limits assumed); experiment: ELISA, plate coated with dimeric EGFR ECD-rabbit Fc (SI-2C1) at 3 µg/mL, antibody from 10 µg/mL in 3x dilutions, goat anti-human IgG-HRP, OD 450 nm
T1 construct: extracellular domain; Made in house; also called dimeric EGFR ECD reagent; not shown: rabbit Fc

[2] = biological target: T2, Her3 ECD (Sino Biological, 10201-H08H-10) (UniProt P21860 20-643); experiment: BLI (BLItz), same tip after the EGFR step; second step Her3 ECD 200 nM, 120 s association, 60 s dissociation
T2 construct: extracellular domain; Bought reagent; also called Her3 extracellular domain

[3] = biological target: T2, Her3 ECD (Sino Biological, …); experiment: as above; remark: listed apart in the source
[4] = biological target: T1, SI-2C1, dimeric EGFR ECD fused to …; experiment: ELISA, plate coated with dimeric EGFR ECD-rabbit Fc (SI-2C1) at 3 µg/mL, antibody from 50 µg/mL in 3x dilutions, goat anti-human IgG-HRP, OD 450 nm
[5] = biological target: T3, Extracellular domain (Met 1-Ser 645) of human EGFR with a C-terminal polyhistidine tag (human, UniProt P00533 25-645); experiment: BLI (Octet Red96), antibody on anti-human Fc sensor, curve fit at EGFR 300 nM
T3 construct: range 1-645; also called EGFR protein; EGFR ECD; not shown: C-terminal polyhistidine tag

[6] = biological target: T3, Extracellular domain (Met 1-Ser 645) of …; experiment: BLI (Octet Red96), antibody on anti-human Fc sensor, curve fit at EGFR 11.1 nM
[7] = biological target: T3, Extracellular domain (Met 1-Ser 645) of …; experiment: BLI (Octet Red96), antibody on anti-human Fc sensor, curve fit at EGFR 33.3 nM
[8] = biological target: T4, Monomeric EGFR ECD (SI-2R4) (UniProt P00533 25-645, limits assumed); experiment: ELISA on coated monomeric EGFR ECD (SI-2R4), detection through Her3 ECD rabbit IgG1 (SI-1R1); antibody in 95% human serum, Day 7 at 55 C (degradation condition)
T4 construct: extracellular domain; Coated antigen of the serum stability ELISA

[9] = biological target: T4, Monomeric EGFR ECD (SI-2R4); experiment: ELISA on coated monomeric EGFR ECD (SI-2R4), detection through Her3 ECD rabbit IgG1 (SI-1R1); antibody after 7 days in 95% human serum at 37 C; Day 7 at 37 C, 95% human serum
[10] = biological target: T3, Extracellular domain (Met 1-Ser 645) of …; experiment: BLI (Octet Red96), antibody on anti-human Fc sensor, average of the four curve fits
[11] = biological target: T4, Monomeric EGFR ECD (SI-2R4); experiment: ELISA on coated monomeric EGFR ECD (SI-2R4), detection through Her3 ECD rabbit IgG1 (SI-1R1) and anti-rabbit IgG-HRP; antibody in 95% human serum, Day 0; Day 0, 95% human serum
[12] = biological target: T4, Monomeric EGFR ECD (SI-2R4); experiment: ELISA on coated monomeric EGFR ECD (SI-2R4, 3 µg/mL), antibody after 3 days at 37 °C in 95% human serum, column 'Day 3 (37°C)'; M follows from the text, which gives the neighbouring 4.293e-010 as 429.3 pM
[13] = biological target: T5, EGFR on A431 and FaDu tumor cells (UniProt P00533 25-1210, limits assumed); experiment: flow cytometry titration on tumour cells (Fadu by the legend paragraph 18, A431 by Example 7 paragraph 83), PE anti-human IgG-Fc, geometric MFI; the table's head prints 'IC50 (nM)', Example 7 calls the values EC50 of binding; bispecific EGFR x Her3 on cells that carry both, the anti-Her3 curve (SI-1C1) stays near the baseline
T5 construct: whole, on cells; the cells are native tumor lines, not transfectants

[14] = biological target: T5, EGFR on A431 and FaDu tumor cells; experiment: flow cytometry titration on tumour cells (A431 by the legend paragraph 19, FaDu by Example 7 paragraph 83), PE anti-human IgG-Fc, geometric MFI; the table's head prints 'IC50 (nM)', Example 7 calls the values EC50 of binding; bispecific EGFR x Her3 on cells that carry both, the anti-Her3 curve (SI-1C1) stays near the baseline
[15] = biological target: T3, Extracellular domain (Met 1-Ser 645) of …; experiment: BLI (Octet Red96), antibody on anti-human Fc sensor, curve fit at EGFR 100 nM

B1: SI-1C4 (bispecific antibody, human IgG1, kappa, V domains shown)
VH: EVQLVESGGGLVQPGGSLRLSCAASGFTLSGDWIHWVRQAPGKGLEWVGEISAAGGYTDYADSVKGRFTISADTSKNTAYLQMNSLRAEDTAVYYCARESRVSFEAAMDYWGQGTLVTVSS
VL: DIQMTQSPSSLSASVGDRVTITCRASQNIATDVAWYQQKPGKAPKLLIYSASFLYSGVPSRFSGSGSGTDFTLTISSLQPEDFATYYCQQSEPEPYTFGQGTKVEIKR
notes: Control: two-in-one bispecific antibody against EGFR and HER3 (Schaefer et al. 2011 platform); also called IC4; benchmark antibody
EC50 (read off the curve) [1]: ~0.03 nM | binding result [2]: binds

B2: SI-1X1 (bispecific antibody, human IgG1, kappa)
heavy: not shown
light: QSALTQPASVSGSPGQSITISCTGTSSDVGGYNFVSWYQQHPGKAPKLMIYDVSDRPSGVSDRFSGSKSGNTASLIISGLQADDEADYYCSSYGSSSTHVIFGGGTKLTVLRTVAAPSVFIFPPSDEQLKSGTASVVCLLNNFYPREAKVQWKVDNALQSGNSQESVTEQDSKDSTYSLSSTLTLSKADYEKHKVYACEVTHQGLSSPVTKSFNRGEC
notes: Tetravalent: anti-HER3 IgG1 with anti-EGFR scFv on the heavy chain C-terminus (heavy chain entry holds IgG1 heavy chain, connector and scFv)
EC50 (read off the curve) [1]: ~0.2 nM | binding result [2]: binds

B3: SI-1X3 (bispecific antibody, human IgG1, kappa)
heavy: not shown
light: B2 light
notes: Tetravalent: anti-HER3 IgG1 with anti-EGFR (1C5) scFv on the heavy chain C-terminus
binding result [3]: binds

B4: SI-1X4 (bispecific antibody, human IgG1, kappa)
heavy: not shown
light: DIQMTQSPSSLSASVGDRVTITCRSSQNIVHSNGNTYLDWYQQTPGKAPKLLIYKVSNRFSGVPSRFSGSGSGTDFTFTISSLQPEDIATYYCFQYSHVPWTFGQGTKLQITRTVAAPSVFIFPPSDEQLKSGTASVVCLLNNFYPREAKVQWKVDNALQSGNSQESVTEQDSKDSTYSLSSTLTLSKADYEKHKVYACEVTHQGLSSPVTKSFNRGEC
notes: Tetravalent: anti-EGFR (1C5) IgG1 with anti-HER3 scFv on the heavy chain C-terminus
binding result [3]: binds | EC50 (read off the curve) [4]: ~5 nM

B5: SI-1C5 (antibody, human IgG1, kappa, V domains shown)
VH: QVQLQQSGAEVKKPGSSVKVSCKASGYTFTNYYIYWVRQAPGQGLEWIGGINPTSGGSNFNEKFKTRVTITVDESTNTAYMELSSLRSEDTAFYFCARQGLWFDSDGRGFDFWGQGSTVTVSS
VL: DIQMTQSPSSLSASVGDRVTITCRSSQNIVHSNGNTYLDWYQQTPGKAPKLLIYKVSNRFSGVPSRFSGSGSGTDFTFTISSLQPEDIATYYCFQYSHVPWTFGQGTKLQITR
notes: Monospecific anti-EGFR IgG1 kappa
EC50 (read off the curve) [4]: ~5 nM

B6: SI-1X4.2 (bispecific antibody)
heavy: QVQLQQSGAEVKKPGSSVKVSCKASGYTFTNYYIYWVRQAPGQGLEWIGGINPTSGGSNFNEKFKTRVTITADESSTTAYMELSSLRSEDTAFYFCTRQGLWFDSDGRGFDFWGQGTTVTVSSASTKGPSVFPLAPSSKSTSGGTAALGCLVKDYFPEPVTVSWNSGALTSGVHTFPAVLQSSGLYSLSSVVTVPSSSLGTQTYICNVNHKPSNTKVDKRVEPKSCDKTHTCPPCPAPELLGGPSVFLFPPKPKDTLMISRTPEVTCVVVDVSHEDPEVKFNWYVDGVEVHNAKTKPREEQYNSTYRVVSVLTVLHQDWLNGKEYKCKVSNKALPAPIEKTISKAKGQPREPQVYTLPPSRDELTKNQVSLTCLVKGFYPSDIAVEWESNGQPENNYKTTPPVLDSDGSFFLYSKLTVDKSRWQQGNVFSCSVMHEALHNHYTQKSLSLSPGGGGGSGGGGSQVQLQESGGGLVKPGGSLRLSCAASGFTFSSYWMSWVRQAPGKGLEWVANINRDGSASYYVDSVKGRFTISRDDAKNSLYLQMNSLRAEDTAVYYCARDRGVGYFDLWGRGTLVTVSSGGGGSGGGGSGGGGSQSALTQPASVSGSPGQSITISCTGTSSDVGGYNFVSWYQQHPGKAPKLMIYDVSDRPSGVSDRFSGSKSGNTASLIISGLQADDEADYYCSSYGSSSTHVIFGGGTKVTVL
light: B4 light
notes: Tetravalent: anti-EGFR (1C5.2) IgG1 with anti-HER3 scFv
Kd [5]: 36.9 nM | koff [5]: 0.00171 s⁻¹ | kon [5]: 46300 M⁻¹ s⁻¹ | Kd [6]: 6.19 nM | koff [6]: 0.00135 s⁻¹ | kon [6]: 218000 M⁻¹ s⁻¹ | Kd [7]: 9.44 nM | koff [7]: 0.00149 s⁻¹ | kon [7]: 158000 M⁻¹ s⁻¹ | EC50 [8]: 4.25 nM | EC50 [9]: 0.467 nM | Kd [10]: 18.4 nM | koff [10]: 0.00155 s⁻¹ | kon [10]: 125000 M⁻¹ s⁻¹ | EC50 [11]: 0.429 nM | EC50 [12]: 0.509 nM | EC50 [13]: 4.02 nM | EC50 [14]: 2.28 nM | Kd [15]: 21 nM | koff [15]: 0.00165 s⁻¹ | kon [15]: 78800 M⁻¹ s⁻¹
